Assay results: patent publication US20170173107A1
One block for each binder: values may come before it. Positions of bridges follow the written chain, without caps; N, C: chain ends. Non-standard residues stand in square brackets, D forms with d. ABM2 = diphenyl-cyclohexanol phosphate ester hexanoic acid tag; Trp(1-Me) = Cn1cc(C[C@H](N)C(=O)O)c2ccccc21; NMeI = CC[C@H](C)[C@H](NC)C(=O)O; Sar = CNCC(=O)O

Tests used:
[1] = biological target: plasma proteins of C3-depleted serum; test: rapid equilibrium dialysis, 10 µM peptide, C3-depleted serum, 37 °C 24 h, UPLC-HDMS
[2] = biological target: plasma proteins of C3-depleted serum; test: rapid equilibrium dialysis, 5 µM peptide, C3-depleted serum, 37 °C 24 h, UPLC-HDMS
[3] = biological target: plasma proteins of C3-positive serum (C3-depleted serum with 5 µM purified C3 added); test: rapid equilibrium dialysis, 5 µM peptide, C3-positive serum (5 µM C3), 37 °C 24 h, UPLC-HDMS
[4] = biological target: plasma proteins of C3-positive serum (C3-depleted serum with 5 µM purified C3 added); test: rapid equilibrium dialysis, 10 µM peptide, C3-positive serum (5 µM C3), 37 °C 24 h, UPLC-HDMS

- % bound [1]: > 99%
- % bound [2]: > 99%
- % bound [3]: > 99%
- % bound [4]: > 99%
B1: ABM2-Cp20 (ABM2-Ile-[Cys-Val-Trp(Me)-Gln-Asp-Trp-Sar-Ala-His-Arg-Cys]-mIle-NH2) (peptide)
peptide: ABM2-ICVWQDW[Sar]AHRC[NMeI]-NH2
modifications: disulfide 2-12; not fully specified (residue 4); printed as ABM2-Ile-[Cys-Val-Trp(Me)-Gln-Asp-Trp-Sar-Ala-His-Arg-Cys]-mIle-NH2

- % bound [1]: 3%
- % bound [2]: 7%
- % bound [3]: > 99%
- % bound [4]: 84%
B2: Cp20 (Ac-Ile-[Cys-Val-Trp(Me)-Gln-Asp-Trp-Sar-Ala-His-Arg-Cys]-mIle-NH2) (peptide)
peptide: Ac-ICV[Trp(1-Me)]QDW[Sar]AHRC[NMeI]-NH2
modifications: disulfide 2-12
SMILES: CC[C@H](C)[C@H](NC(C)=O)C(=O)N[C@H]1CSSC[C@@H](C(=O)N(C)[C@H](C(N)=O)[C@@H](C)CC)NC(=O)[C@H](CCCNC(=N)N)NC(=O)[C@H](Cc2c[nH]cn2)NC(=O)[C@H](C)NC(=O)CN(C)C(=O)[C@H](Cc2c[nH]c3ccccc23)NC(=O)[C@H](CC(=O)O)NC(=O)[C@H](CCC(N)=O)NC(=O)[C@H](Cc2cn(C)c3ccccc23)NC(=O)[C@H](C(C)C)NC1=O
